Article PMC10684670

B1: B7-H6: tunicamycin (protein)
parent chain: MTWRAAASTCAALLILLWALTTEGDLKVEMMAGGTQITPLNDNVTIFCNIFYSQPLNITSMGITWFWKSLTFDKEVKVFEFFGDHQEAFRPGAIVSPWRLKSGDASLRLPGIQLEEAGEYRCEVVVTPLKAQGTVQLEVVASPASRLLLDQVGMKENEDKYMCESSGFYPEAINITWEKQTQKFPHPIEISEDVITGPTIKNMDGTFNVTSCLKLNSSQEDPGTVYQCVVRHASLHTPLRSNFTLTAARHSLSETEKTDNFSIHWWPISFIGVGLVLLIVLIPWKKICNKSSSAYTPLKCILKHWNSFDTQTLKKEHLIFFCTRAWPSYQLQDGEAWPPEGSVNINTIQQLDVFCRQEGKWSEVPYVQAFFALRDNPDLCQCCRIDPALLTVTSGKSIDDNSTKSEKQTPREHSDAVPDAPILPVSPIWEPPPATTSTTPVLSSQPPTLLLPLQ
B2: B7-H6: N208Q (protein)
parent chain: MTWRAAASTCAALLILLWALTTEGDLKVEMMAGGTQITPLNDNVTIFCNIFYSQPLNITSMGITWFWKSLTFDKEVKVFEFFGDHQEAFRPGAIVSPWRLKSGDASLRLPGIQLEEAGEYRCEVVVTPLKAQGTVQLEVVASPASRLLLDQVGMKENEDKYMCESSGFYPEAINITWEKQTQKFPHPIEISEDVITGPTIKNMDGTFNVTSCLKLNSSQEDPGTVYQCVVRHASLHTPLRSNFTLTAARHSLSETEKTDNFSIHWWPISFIGVGLVLLIVLIPWKKICNKSSSAYTPLKCILKHWNSFDTQTLKKEHLIFFCTRAWPSYQLQDGEAWPPEGSVNINTIQQLDVFCRQEGKWSEVPYVQAFFALRDNPDLCQCCRIDPALLTVTSGKSIDDNSTKSEKQTPREHSDAVPDAPILPVSPIWEPPPATTSTTPVLSSQPPTLLLPLQ
B3: B7-H6: N43Q (protein)
parent chain: MTWRAAASTCAALLILLWALTTEGDLKVEMMAGGTQITPLNDNVTIFCNIFYSQPLNITSMGITWFWKSLTFDKEVKVFEFFGDHQEAFRPGAIVSPWRLKSGDASLRLPGIQLEEAGEYRCEVVVTPLKAQGTVQLEVVASPASRLLLDQVGMKENEDKYMCESSGFYPEAINITWEKQTQKFPHPIEISEDVITGPTIKNMDGTFNVTSCLKLNSSQEDPGTVYQCVVRHASLHTPLRSNFTLTAARHSLSETEKTDNFSIHWWPISFIGVGLVLLIVLIPWKKICNKSSSAYTPLKCILKHWNSFDTQTLKKEHLIFFCTRAWPSYQLQDGEAWPPEGSVNINTIQQLDVFCRQEGKWSEVPYVQAFFALRDNPDLCQCCRIDPALLTVTSGKSIDDNSTKSEKQTPREHSDAVPDAPILPVSPIWEPPPATTSTTPVLSSQPPTLLLPLQ

Legend:
[1] = target: rhNKp30-his protein (UniProt O14931); assay: flow cytometry on cells; settings: 293T cells stably expressing B7-H6, stained with his-tagged NKp30; parent: est. 1.0; read off a plot
[2] = CHX chase, WB, U87; settings: glycan lost; control: DMSO
[3] = CHX chase, WB, 293T; settings: glycan lost; control: DMSO
[4] = surface B7-H6 flow cytometry, HEK293T; settings: glycan lost; control: wild type
[5] = surface B7-H6 flow cytometry, HCT-116; settings: glycan lost; control: wild type
[6] = CHX chase, WB, stable 293T; settings: glycan lost; control: wild type
[7] = WB of TCA-precipitated supernatant, HEK293T; settings: glycan lost; control: wild type
[8] = WB of TCA-precipitated supernatant, HCT-116; settings: glycan lost; control: wild type

Molecule	localisation_or_trafficking [4]	localisation_or_trafficking [5]	degradation_or_half_life, half_life [6]	also measured
B7-H6, wild type, stably expressed on B7-H6 knockout 293T cells (from UniProt Q68D85) N411Q	–	–	–	ratio to parent [1]: 0.94
B1	–	–	–	degradation_or_half_life, half_life [2]: decreases, 12.83 vs 27.14; degradation_or_half_life, half_life [3]: decreases, 17.36 vs 47.42
B2	decreases	decreases	decreases, 15 vs about 52	other: shedding of soluble B7-H6 [7]: increases; other: shedding of soluble B7-H6 [8]: increases
B3	decreases	decreases	decreases, 5 vs about 52	–
